Measured values taken from patent US20210340238A1 (SCHOLAR ROCK, published 2021).

How the values were obtained:
[1] = molecular target: T1, recombinant human LTBP3-proTGFβ1 complex (human, UniProt Q9NS15 44-1303; P01137 30-390, limits assumed); assay: cell-based or functional assay
[2] = molecular target: human LRRC33-proTGFβ1 complex presented on the cell surface (human, UniProt Q86YC3 19-692; P01137 30-390); assay: cell-based or functional assay
[3] = molecular target: human GARP-proTGFβ1 complex presented on the cell surface (human, UniProt Q14392 20-662; P01137 30-390); assay: cell-based or functional assay
[4] = molecular target: T2, recombinant human LTBP1-proTGFβ1 complex (human, UniProt Q14766 347-1721; P01137 30-390); assay: cell-based or functional assay
T2 sequence (Q14766 347-1721 limits assumed, chain 1 of 2): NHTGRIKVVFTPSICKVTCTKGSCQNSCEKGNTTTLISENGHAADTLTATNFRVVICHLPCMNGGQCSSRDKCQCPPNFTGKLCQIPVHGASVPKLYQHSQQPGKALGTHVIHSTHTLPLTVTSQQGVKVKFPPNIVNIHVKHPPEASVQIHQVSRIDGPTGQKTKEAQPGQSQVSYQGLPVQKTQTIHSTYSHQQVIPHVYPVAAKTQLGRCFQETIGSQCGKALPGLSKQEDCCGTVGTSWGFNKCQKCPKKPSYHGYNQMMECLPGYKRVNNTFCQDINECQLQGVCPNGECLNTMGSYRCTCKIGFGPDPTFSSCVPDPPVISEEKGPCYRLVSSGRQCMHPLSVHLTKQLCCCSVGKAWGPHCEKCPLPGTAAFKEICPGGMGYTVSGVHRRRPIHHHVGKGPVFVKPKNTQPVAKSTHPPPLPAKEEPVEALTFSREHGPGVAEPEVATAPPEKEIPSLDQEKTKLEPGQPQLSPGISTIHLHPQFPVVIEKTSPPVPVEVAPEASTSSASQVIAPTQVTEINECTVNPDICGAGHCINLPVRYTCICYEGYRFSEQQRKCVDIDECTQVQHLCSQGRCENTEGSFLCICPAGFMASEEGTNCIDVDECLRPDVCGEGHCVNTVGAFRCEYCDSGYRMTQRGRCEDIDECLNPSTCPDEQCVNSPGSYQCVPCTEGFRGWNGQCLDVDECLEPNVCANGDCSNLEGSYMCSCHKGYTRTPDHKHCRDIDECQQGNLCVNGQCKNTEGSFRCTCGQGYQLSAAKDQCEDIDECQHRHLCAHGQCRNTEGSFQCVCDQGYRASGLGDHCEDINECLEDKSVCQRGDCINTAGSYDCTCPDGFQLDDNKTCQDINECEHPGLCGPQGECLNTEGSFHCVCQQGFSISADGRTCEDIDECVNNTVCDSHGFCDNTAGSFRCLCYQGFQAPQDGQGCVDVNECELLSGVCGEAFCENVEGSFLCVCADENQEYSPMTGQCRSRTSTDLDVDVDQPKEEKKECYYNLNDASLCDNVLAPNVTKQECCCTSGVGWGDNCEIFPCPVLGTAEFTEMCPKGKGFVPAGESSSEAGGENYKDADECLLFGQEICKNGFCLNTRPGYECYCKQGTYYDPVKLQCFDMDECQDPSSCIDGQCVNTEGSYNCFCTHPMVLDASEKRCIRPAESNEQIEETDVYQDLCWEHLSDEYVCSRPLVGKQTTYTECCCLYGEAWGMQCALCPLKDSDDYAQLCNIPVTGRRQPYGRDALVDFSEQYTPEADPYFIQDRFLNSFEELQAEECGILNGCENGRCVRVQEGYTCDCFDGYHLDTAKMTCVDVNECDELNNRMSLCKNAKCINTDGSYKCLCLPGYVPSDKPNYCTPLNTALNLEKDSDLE
T2 sequence (P01137 30-390 limits assumed, chain 2 of 2): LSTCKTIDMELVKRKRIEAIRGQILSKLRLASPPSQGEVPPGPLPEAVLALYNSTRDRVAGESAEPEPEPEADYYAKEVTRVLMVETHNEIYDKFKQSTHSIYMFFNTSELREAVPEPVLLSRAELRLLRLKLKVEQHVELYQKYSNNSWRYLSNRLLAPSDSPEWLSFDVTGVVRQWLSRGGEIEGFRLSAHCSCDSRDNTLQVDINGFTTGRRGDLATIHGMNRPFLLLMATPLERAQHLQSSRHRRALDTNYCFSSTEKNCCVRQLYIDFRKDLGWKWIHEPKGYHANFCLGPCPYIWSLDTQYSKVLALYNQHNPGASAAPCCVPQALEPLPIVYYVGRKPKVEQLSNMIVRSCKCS

[5] = molecular target: T1, recombinant human LTBP3-proTGFβ1 complex; assay: Octet (BLI); IgG1 from yeast
[6] = molecular target: T3, recombinant human LRRC33-proTGFβ1 complex (human, UniProt Q86YC3 19-650; P01137 30-390, limits assumed); assay: Octet (BLI); IgG1 from yeast
T3 construct: Purified complex of the Octet and MSD-SET assays, biotinylated; also called hLRRC33; hLRRC33-proTGFβ1
T3 sequence (Q86YC3 19-650 limits assumed, chain 1 of 2): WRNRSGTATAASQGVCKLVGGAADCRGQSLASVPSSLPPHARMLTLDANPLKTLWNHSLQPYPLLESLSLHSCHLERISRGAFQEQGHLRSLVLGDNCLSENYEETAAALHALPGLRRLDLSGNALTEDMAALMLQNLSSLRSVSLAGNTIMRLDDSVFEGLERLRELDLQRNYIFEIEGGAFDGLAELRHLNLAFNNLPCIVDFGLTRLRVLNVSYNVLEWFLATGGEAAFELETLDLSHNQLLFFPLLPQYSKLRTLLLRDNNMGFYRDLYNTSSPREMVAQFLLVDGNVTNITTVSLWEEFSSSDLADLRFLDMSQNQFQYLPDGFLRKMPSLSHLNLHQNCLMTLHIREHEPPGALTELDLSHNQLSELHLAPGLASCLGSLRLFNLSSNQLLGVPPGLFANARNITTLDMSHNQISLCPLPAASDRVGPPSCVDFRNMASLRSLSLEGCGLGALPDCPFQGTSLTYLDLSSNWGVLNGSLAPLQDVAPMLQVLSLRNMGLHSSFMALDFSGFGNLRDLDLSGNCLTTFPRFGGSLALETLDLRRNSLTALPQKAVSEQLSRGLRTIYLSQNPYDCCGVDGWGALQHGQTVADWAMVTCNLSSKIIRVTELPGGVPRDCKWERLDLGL
T3 sequence (P01137 30-390 limits assumed, chain 2 of 2): as the sequence (P01137 30-390 limits assumed, chain 2 of 2) above

[7] = molecular target: T4, recombinant human GARP-proTGFβ1 complex (human, UniProt Q14392 20-627; P01137 30-390, limits assumed); assay: Octet (BLI); IgG1 from yeast
T4 construct: Purified complex of the Octet and MSD-SET assays, biotinylated; also called hGARP; hGARP-proTGFβ1
T4 sequence (Q14392 20-627 limits assumed, chain 1 of 2): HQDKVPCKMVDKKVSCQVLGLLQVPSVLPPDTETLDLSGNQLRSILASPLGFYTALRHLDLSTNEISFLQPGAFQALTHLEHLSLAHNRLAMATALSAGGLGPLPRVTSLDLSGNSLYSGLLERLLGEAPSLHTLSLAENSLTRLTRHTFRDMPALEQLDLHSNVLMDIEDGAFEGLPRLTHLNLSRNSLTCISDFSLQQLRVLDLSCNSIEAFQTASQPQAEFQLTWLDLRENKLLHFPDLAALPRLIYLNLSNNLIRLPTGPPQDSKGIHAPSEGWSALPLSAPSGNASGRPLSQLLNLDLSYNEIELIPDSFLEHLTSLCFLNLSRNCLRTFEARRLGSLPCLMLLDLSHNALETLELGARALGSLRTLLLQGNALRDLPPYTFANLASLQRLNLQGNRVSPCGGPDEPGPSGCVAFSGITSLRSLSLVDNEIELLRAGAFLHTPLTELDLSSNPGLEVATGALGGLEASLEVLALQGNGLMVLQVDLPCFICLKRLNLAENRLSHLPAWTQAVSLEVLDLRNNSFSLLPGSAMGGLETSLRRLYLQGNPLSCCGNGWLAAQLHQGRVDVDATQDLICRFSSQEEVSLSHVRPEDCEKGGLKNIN
T4 sequence (P01137 30-390 limits assumed, chain 2 of 2): as the sequence (P01137 30-390 limits assumed, chain 2 of 2) above

[8] = molecular target: T2, recombinant human LTBP1-proTGFβ1 complex; assay: Octet (BLI); IgG1 from yeast
[9] = molecular target: T1, recombinant human LTBP3-proTGFβ1 complex; assay: MSD-SET; IgG4 from mammalian cells
[10] = molecular target: T3, recombinant human LRRC33-proTGFβ1 …; assay: MSD-SET; IgG4 from mammalian cells
[11] = molecular target: T4, recombinant human GARP-proTGFβ1 complex; assay: MSD-SET; IgG4 from mammalian cells
[12] = molecular target: T2, recombinant human LTBP1-proTGFβ1 complex; assay: MSD-SET; IgG4 from mammalian cells

T1 sequence (Q9NS15 44-1303 limits assumed, chain 1 of 2): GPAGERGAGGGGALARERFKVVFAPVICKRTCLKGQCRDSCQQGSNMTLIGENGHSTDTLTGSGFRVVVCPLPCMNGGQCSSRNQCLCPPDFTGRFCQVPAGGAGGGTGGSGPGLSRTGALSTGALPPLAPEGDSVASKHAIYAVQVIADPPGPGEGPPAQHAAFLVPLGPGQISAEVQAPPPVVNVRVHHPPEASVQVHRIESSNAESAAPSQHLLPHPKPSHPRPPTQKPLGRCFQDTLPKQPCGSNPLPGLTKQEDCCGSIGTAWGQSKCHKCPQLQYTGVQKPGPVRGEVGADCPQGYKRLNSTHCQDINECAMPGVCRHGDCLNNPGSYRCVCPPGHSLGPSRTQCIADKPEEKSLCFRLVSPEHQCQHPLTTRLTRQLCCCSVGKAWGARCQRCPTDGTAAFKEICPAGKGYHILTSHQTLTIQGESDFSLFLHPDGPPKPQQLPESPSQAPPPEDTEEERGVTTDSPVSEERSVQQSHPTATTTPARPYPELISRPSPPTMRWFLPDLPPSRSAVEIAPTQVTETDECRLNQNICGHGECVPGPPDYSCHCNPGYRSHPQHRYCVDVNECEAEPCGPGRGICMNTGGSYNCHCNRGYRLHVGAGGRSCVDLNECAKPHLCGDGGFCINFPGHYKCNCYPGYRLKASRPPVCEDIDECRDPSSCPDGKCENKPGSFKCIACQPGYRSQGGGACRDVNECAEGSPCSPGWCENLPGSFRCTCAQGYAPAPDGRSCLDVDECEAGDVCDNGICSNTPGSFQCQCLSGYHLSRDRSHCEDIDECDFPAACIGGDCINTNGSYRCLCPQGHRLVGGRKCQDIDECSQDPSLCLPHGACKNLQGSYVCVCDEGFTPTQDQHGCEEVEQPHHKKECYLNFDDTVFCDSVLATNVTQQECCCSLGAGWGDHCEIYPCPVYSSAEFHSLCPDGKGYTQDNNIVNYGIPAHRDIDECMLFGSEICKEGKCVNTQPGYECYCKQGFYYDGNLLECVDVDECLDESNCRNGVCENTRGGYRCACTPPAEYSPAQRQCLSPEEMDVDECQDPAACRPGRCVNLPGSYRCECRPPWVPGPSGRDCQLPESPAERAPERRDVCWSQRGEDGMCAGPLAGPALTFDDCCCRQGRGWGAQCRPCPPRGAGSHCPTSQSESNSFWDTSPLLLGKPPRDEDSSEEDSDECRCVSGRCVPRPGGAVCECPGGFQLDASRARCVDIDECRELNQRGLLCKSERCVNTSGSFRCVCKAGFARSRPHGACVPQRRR
T1 sequence (P01137 30-390 limits assumed, chain 2 of 2): as the sequence (P01137 30-390 limits assumed, chain 2 of 2) above

B1: Ab3 (antibody, V domains shown)
VH: EVQLLESGGGLVQPGGSLRLSCAASGFTFRNYAMSWVRQAPGKGLEWVSSISGSGGATYYADSVKGRFTISRDNSKNTLYLQMNSLRAEDTAVYYCARVSSGHWDFDYWGQGTLVTVSS
VL: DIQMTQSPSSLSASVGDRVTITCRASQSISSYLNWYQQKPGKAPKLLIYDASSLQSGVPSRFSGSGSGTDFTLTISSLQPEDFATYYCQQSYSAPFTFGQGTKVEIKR
For B1, the “IC50 (nM), cell-based potency assay, CAGA12 luciferase reporter” value (“IC50 (nM), cell-based potency assay” below) [1] was 10.4 nM, the “IC50 (nM), cell-based potency assay” value [2] was 0.858 nM and the “IC50 (nM), cell-based potency assay” value [3] was 0.981 nM. For the same binder, the “IC50 (nM), cell-based potency assay” value [4] was 24.3 nM, the Kd [5] was 0.459 nM and the Kd [6] was 8.52 nM. It also gave a Kd [7] of 17.3 nM, a Kd [8] of 0.47 nM and a Kd [9] of 16.2 nM. For the same binder, the Kd [10] was 35 nM, the Kd [11] was 28 nM and the Kd [12] was 13 nM.
